Assay results as given in article PMC2593004, “Evolutionary Diversification of Plant Shikimate Kinase Gene Duplicates” (PLoS Genetics, 2008).

B1: AtSK2Δ55 (Arabidopsis thaliana) (protein)
chain: LRSVSDKNSSALLETGSLLHSPFDEEQQILKKKAEEVKPYLNGRSMYLVGMMGSGKTTVGKIMARSLGYTFFDCDTLIEQAMKGTSVAEIFEHFGESVFREKETEALKKLSLMYHQVVVSTGGGAVIRPINWKYMHKGISIWLDVPLEALAHRIAAVGTGSRPLLHDDESGDTYTAALNRLSTIWDARGEAYTKASARVSLENITLKLGYRSVSDLTPAEIAIEAFEQVQSYLEKEDGMARPDGL
notes: predicted N-terminal chloroplast transit peptide removed (55 residues truncated)
B2: AtSK1Δ55 (Arabidopsis thaliana) (protein)
chain: DQRRAVSPAVSCSDNNSSALLETGSVYPFDEDILKRKAEEVKPYLNGRSMYLVGMMGSGKTTVGKLMSKVLGYTFFDCDTLIEQAMNGTSVAEIFVHHGENFFRGKETDALKKLSSRYQVVVSTGGGAVIRPINWKYMHKGISIWLDVPLEALAHRIAAVGTDSRPLLHDESGDAYSVAFKRLSAIWDERGEAYTNANARVSLENIAAKRGYKNVSDLTPTEIAIEAFEQVLSFLEKEETMEIPDGDL
notes: as for B1

Tests used:
[1] = substrate: O=C(O)C1=C[C@@H](O)[C@@H](O)[C@H](O)C1; test: purified protein; assay type: biochemical, Arabidopsis thaliana; conditions: apparent Km, 2.5 mM ATP fixed, 100 mM Tris-HCl pH 8.0, 25°C
[2] = substrate: Nc1ncnc2c1ncn2[C@@H]1O[C@H](COP(=O)(O)OP(=O)(O)OP(=O)(O)O)[C@@H](O)[C@H]1O; test: purified protein; assay type: biochemical, Arabidopsis thaliana; conditions: apparent Km, 2.5 mM shikimate fixed, 100 mM Tris-HCl pH 8.0, 25°C

Protein | Km [1] [µM] | kcat [1] [s⁻¹] | Km [2] [µM] | kcat [2] [s⁻¹]
B1 | 422.15 ± 31.16 | 136 ± 4.97 | 246.7 ± 22.56 | 149 ± 5.04
B2 | 648.32 ± 23.45 | 148 ± 2.32 | 218.02 ± 12.27 | 162 ± 3.01
